Measured values: US20220315908A1, “NOVEL GARDNERELLA ENDOLYSINS AND USES THEREOF” (priority 2019, published 2022)

Key:
[1] = test system: G. vaginalis sensu stricto strain Gv_9; test: Quantitative reduction in viable CFU assay in bacterial suspension; format: cell-based, Gardnerella vaginalis sensu stricto; conditions: for median surviving cells after incubation with imidazole: 5×10^7 CFU/ml start, 5 hours 37° C. anaerobic
Description: The lysis activity on the four main species of Gardnerella of 91 constructs (natural and domain-swapped endolysins) was quantitatively assessed using the method described in Reference Example 2. […]
(§1) The results are shown in FIGS. 8A to 8D together with Tables 5A to 5C. In FIGS. 8A to 8D, the logarithmic Y axis depicts the count of surviving cells. The dotted line indicates the limit of detection (LOD) given by plating of 2 ul of the reaction mix (500 CFU/ml). Each combination of the natural 10 H-domains and the natural 9 B-regions was assessed, including the natural endolysins (H1B1, H2B2, H3B3, etc.), plus H6B6. […] The activity of each construct was measured on each of the 4 main Gardnerella species G. vaginalis sensu stricto, G. leopoldii, G. piotii, and G. swidsinkii. All conditions have been measured in triplicate. The survival after 5 hours incubation at pH 5.0 under anaerobic conditions with endolysins vs. buffer was measured by quantitative plating. The values indicate the log 10 of the ratio of surviving CFU for treated vs. untreated cells. The average of the triplicate measurements is used. In tables 5A and 5B, high negative log 10 values, e.g. −6.7, −5.5, −4.8 etc. are associated with high enzymatic activity, while log 10 values closer to zero or even positive log 10 values are associated with low or no enzymatic activity. […] Inversely, a reduction value of −3.7 means a 10^3.7-fold (=5012-fold) reduction of viable CFU in treated sample vs. untreated control.
(§2) Gardnerella cells were recovered from cryo stock by plating on Chocolate Agar plates (Beckton Dickinson) and incubating for 48 h at 37° C. under anaerobic conditions. For Lactobacilli, BD Schaedler/5% sheep blood agar plates were used instead. Colonies were scraped from the plate, resuspended in Hardy Broth or NYC-III-HS-5.0 at the pH as indicated, and the suspension adjusted to OD (610 or 620 nm as indicated) 0.1. It has to be noted that two Tecan Microplate readers, having respectively a 610 nm or 620 nm filter, have been used interchangeably in the experiments. Although it doesn't make any difference for the experiments, the exact wavelength used is specified in each example. If not stated otherwise, 90 μl cell suspension was mixed with 10 μl endolysin solution, for the different species/endolysin combinations, in 384-well plates. OD(610-620 nm as indicated) was measured at the beginning of the reaction and at the end, either as two measurement points or as a continuous kinetic in a Tecan F200 Microplate reader. The reactions were incubated for 5 hours (or otherwise the time indicated) at 37° C. under anaerobic, micro-aerophilic or aerobic conditions as indicated. Anaerobic conditions intend that oxygen was fully depleted from the container in which the bacteria are incubated (Sigma-Aldrich anaerobic jar or sealable lunch box) with an anaerobic sachet, and the lack of oxygen was confirmed with an anaerobic indicator inside the container. Where micro-aerophilic conditions are indicated, the candle-in-a-jar method was used (tea candle lit in an appropriate sealable container, which reduces oxygen levels until the flame dies out). Then each well was diluted in 5 steps (10^−1 to 10^−5) using 96-U-well bottom plates, and 2 μl of each dilution of each reaction mix are plated on BD Chocolate agar plates or BD Schaedler/5% sheep blood agar plates for Gardnerella and Lactobacilli, respectively, for detecting and quantifying surviving CFU. Detection plates were incubated at 37° C. for 48 hours under anaerobic conditions.

[2] = test system: all tested Gardnerella strains; test: MIC and MBC microbroth dilution, stated over all tested strains; format: cell-based; conditions: first round: […]10^7 CFU/ml, 48 h anaerobic (FIG. 14)
Description: One of the main deficiencies in the treatment of BV is the high rate of recurrence in many women, which leads to repeated administration of antibiotics and concomitant destabilization of the microbiome and other side effects. The minimal inhibitory concentration (MIC) and minimal bactericidal concentration (MBC) on Gardnerella cells of the strains also used for the endolysin activity assays were then measured using the method described in Reference Example 6 and 7. […] Essentially, Gardnerella suspensions at 2.5×10^7 CFU/ml were incubated with the concentration of antibiotics as indicated and incubated for 48 h at 37° C. under anaerobic conditions. […] OD(610) was measured at the beginning and the end of the experiment. At the end of the experiment, 2 ul of each reaction mix was spotted on agar to determine the MBC.
The conditions under which MIC and MBC were measured are more rigorous than the standard.
Example 7—Activity assays of a representative (H2B10) of domain swapped endolysins on the growth in suspension of different Gardnerella strains. […] The conditions under which MBC was measured are more rigorous than the standard. […] In general, it is known, that antibiotics only insufficiently eradicate the Gardnerella biofilm, a hallmark of BV, which is one suspected reason for the reported very high recurrence rate of BV. Despite leaving residual viable biofilm, antibiotics wipe parts of the beneficial organisms of the vaginal microbiome which then opens an ecological niche for other pathogens, e.g. fungi.
Bacteria were plated from cryo stock on BD Choc Agar plates (Gardnerella) and incubated at 37° C. for 48 h under anaerobic conditions. Colonies were scraped from the plate, resuspended in Hardy Broth or NYC-III-HS-pH 5.0, and the suspension adjusted to OD (610 or 620 nm as indicated) 0.05. It has to be noted that two Tecan Microplate readers, having respectively a 610 nm or 620 nm filter, have been used interchangeably in the experiments. Although it doesn't make any difference for the experiments, the exact wavelength used is specified in each example. Antibiotics were prepared as 20× stocks for each of the required final concentrations. […] OD (610-620 as indicated) at the start of the reaction was measured, then the plate was incubated at 37° C. for 48 h under anaerobic conditions. After that, the OD (610-620 as indicated) was measured again for MIC determination, where MIC was defined as the lowest concentration of antibiotic where the OD (610-620 as indicated) was not above the level measured at the beginning of the experiment. […] After incubation, cell growth on each spot was evaluated, and the MBC defined as the lowest concentration of antibiotics where no bacteria grew on the plate.

[3] = test system: G. leopoldii strain Gv_11; test: Quantitative reduction in viable CFU assay in bacterial suspension; format: cell-based, Gardnerella leopoldii; conditions: 5 hours, pH 5.0, anaerobic, 10 ul endolysin (0.2 mg/ml where possible) + 90 ul 5e7 CFU/ml, average of triplicate
Description: (§3) The lysis activity on the four main species of Gardnerella of 91 constructs (natural and domain-swapped endolysins) was quantitatively assessed using the method described in Reference Example 2. Briefly, 90 ul 5e7 CFU/ml of the indicated strain were incubated for 5 hours at pH 5.0 under anaerobic conditions with 10 ul endolysin (concentration adjusted to 0.2 mg/ml where possible, see Table 4).
as §1, §2

G. piotii strain Gv_17 = test: as above; format: cell-based, Gardnerella piotii; conditions: 5 hours, pH 5.0, anaerobic, 10 ul endolysin (0.2 mg/ml where possible) + 90 ul 5e7 CFU/ml, average of triplicate
Description: as §3, §1, §2

[4] = test system: G. swidsinskii strain Gv_23; test: as above; format: cell-based, Gardnerella swidsinskii; conditions: 5 hours, pH 5.0, anaerobic, 10 ul endolysin (0.2 mg/ml where possible) + 90 ul 5e7 CFU/ml, average of triplicate
Description: as §3, §1, §2

[5] = test system: four Gardnerella strains (Gv_9, Gv_11, Gv_17, Gv_23); test: CFU reduction averaged across the four Gardnerella strains, with activity ranks; format: cell-based
Description: as §3, §1
as §2, with “out).” for “out). Then each well was diluted in 5 steps (10^−1 to 10^−5) using 96-U-well bottom plates, and 2 μl of each dilution of each reaction mix are plated on BD Chocolate agar plates or BD Schaedler/5% sheep blood agar plates for Gardnerella and Lactobacilli, respectively, for detecting and quantifying surviving CFU. Detection plates were incubated at 37° C. for 48 hours under anaerobic conditions.”

c1c[nH]cn1 [imidazole]
median surviving cells after incubation with imidazole ([1]; pH 6.0): 1×10^6 CFU/ml
median surviving cells after incubation with imidazole ([1]; pH 7.0): 3×10^4 CFU/ml

CCC[C@@H]1C[C@@H](C(=O)N[C@@H]([C@H]2O[C@H](SC)[C@H](O)[C@@H](O)[C@H]2O)[C@H](C)Cl)N(C)C1 [Clindamycin]
MIC over all Gardnerella strains [2]: > 8 µg/mL

B1: H6B6: natural Gardnerella prophage endolysin from strain 1400E, truncated at the C-terminus (protein)
chain: MSKKGIDVSVWQGDIDFNAVKASGVEFVIIRAGYGIGCKDKWFEQNYRKAKTCGLDVGAYWYSYANSGFEAAEEAQSCVNMLSGKSFEYPVYFDLEEKSQLNRGRAFCDSLITSFCSKLESCGYYAGFYTSLSTANNLVSAHVRNRYALWIAQWNTHCDYQGSYGLWQYSSSGSVPGVAGRVDMDYAYKNYPSIIKNAGLNGCKNGGSNQAARTSSIDDVAREVINGAWGNGNERKQRLTQAGYDYASVAK
modifications: EL6_strain_1400E_frameshift
notes: natural Gardnerella prophage endolysin from strain 1400E, truncated at the C-terminus
log 10 of the ratio of surviving CFU for treated vs. untreated cells ([1]; Gv_9, 5 hours, pH 5.0, anaerobic, 10 ul endolysin (0.2 mg/ml where possible) + 90 ul 5e7 CFU/ml, average of triplicate): 0.1 log 10
log 10 of the ratio of surviving CFU for treated vs. untreated cells [3]: 0.2 log 10
log 10 of the ratio of surviving CFU for treated vs. untreated cells (G. piotii strain Gv_17): −0.2 log 10
log 10 of the ratio of surviving CFU for treated vs. untreated cells [4]: −0.1 log 10
killing activity against Gardnerella, in words ([5]; across the Gardnerella strains tested): complete inactivity
average of the log 10 activities of each construct across the four Gardnerella strains ([5]; pH 5.0, 5 hours, anaerobic): 0.0 log 10
activity rank of all endolysins ([5]; rank 1-91, based on the data of Table 5B): 86
